These results are taken from article PMC9426524.

Usually Km stands for the concentration of substrate that gives half-maximal velocity.

The series deals with CC(=O)C=O. In words: purified protein.

As for E. coli YajL (Escherichia coli K-12), the Michaelis constant (Km) stood at 95 ± 18 µM.
